Data reported in paper PMC4365997 (Journal of cell science, 2008).

Target: T1, recombinant Rab11a (UniProt P62491 1-216)
T1 sequence (looked up): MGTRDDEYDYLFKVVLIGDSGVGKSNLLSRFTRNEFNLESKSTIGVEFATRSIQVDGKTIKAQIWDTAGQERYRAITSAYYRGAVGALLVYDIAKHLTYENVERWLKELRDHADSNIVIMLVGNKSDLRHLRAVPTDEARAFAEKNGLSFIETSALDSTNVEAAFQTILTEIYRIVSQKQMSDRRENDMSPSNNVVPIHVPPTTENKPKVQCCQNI
Assay: pull-down

binding result: binds
B1: Rip11/FIP5(490-652) (domain or fragment, UniProt Q9BXF6 490-652, looked up)
chain: ILGASPHHSSSGEEKAKSSWFGLREAKDPTQKPSPHPVKPLSAAPVEGSPDRKQSRSSLSIALSSGLEKLKTVTSGSIQPVTQAPQAGQMVDTKRLKDSAVLDQSAKYYHLTHDELISLLLQRERELSQRDEHVQELESYIDRLLVRIMETSPTLLQIPPGPP
